Data on four molecules can be found in US20230034768A1 (BIOSION, published 2023).

Assay [1] has as its target T1, biotin-labeled human RANKL-Fc protein (prepared in house, SEQ ID NO.: 40) (human, biotin-labeled (sites not given)).
T1 construct: also called RANKL-Fc-biotin
Description: competitive ELISA: antibody blocks biotin-labeled human RANKL-Fc binding to coated human RANK-Fc. The procedure:
(§1) Briefly, human RANK-Fc proteins (prepared in house, SEQ ID NO.: 41) were coated on 96-well micro plates at 2.0 μg/mL in PBS, 100 μl/well, and incubated overnight at 4° C. The next day, plates were washed with wash buffer (PBS+0.05% w/v Tween-20, PBST), and blocked with 5% w/v non-fatty milk in PBST, 200 μl/well, for 2 hours at 37° C.
(§2) Plates were washed 4 times using wash buffer, and added and incubated with 100 μl/well of streptavidin conjugated HRP (1:10000 dilution in PBST buffer, Jackson ImmunoResearch Laboratories, Inc., Cat #016-030-084) for 40 minutes at 37° C. Plates were washed again using wash buffer. Finally, TMB was added and the reaction was stopped using 1M H₂SO₄, and the absorbance of each well was read on a microplate reader using dual wavelengths mode with 450 nm for TMB and 630 nm as the reference wavelength. The OD (450-630) values were plotted against antibody concentration. Data were analyzed using Graphpad Prism software and IC₅₀ values were reported.
(In general: ELISA stands for enzyme-linked immunosorbent assay.)

For assay [2], the target named is T2, Recombinant human RANKL-his protein (R&D, Cat #6449-TEC-010) (human, UniProt O14788 140-317, limits assumed).
T2 sequence (looked up): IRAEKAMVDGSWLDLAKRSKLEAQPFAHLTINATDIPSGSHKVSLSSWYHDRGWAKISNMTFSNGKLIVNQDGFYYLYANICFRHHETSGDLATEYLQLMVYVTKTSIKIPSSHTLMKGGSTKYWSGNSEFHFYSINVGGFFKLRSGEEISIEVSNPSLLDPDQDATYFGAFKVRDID
Put plainly: cell-based or functional assay.

For assay [3], the target named is T1, biotin-labeled human RANKL-Fc protein …. Description: capture ELISA: captured antibody, biotin-labeled human RANKL-Fc, OD(450-630). On the procedure:
(§3) Plates were washed once with wash buffer (PBS+0.05% v/v Tween-20, PBST) and then blocked with 200 μl/well blocking buffer (5% w/v non-fatty milk in PBST) for 2 hours at 37° C. […] After a final wash, plates were incubated with 100 μl/well ELISA substrate TMB (Innoreagents, Cat #TMB-S-002) at room temperature. The reaction was stopped in 3-10 minutes with 50 μl/well 1M H₂SO₄, and the absorbance of each well was read on a microplate reader using dual wavelengths mode with 450 nm for TMB and 630 nm as the reference wavelength. The OD (450-630) values were plotted against antibody concentration. Data were analyzed using Graphpad Prism software and EC₅₀ values were reported.

Assay [4] deals with T2, Recombinant human RANKL-his protein …. Description: cell-based or functional assay. This is another data set of the same source.
Assay [5] concerns the target T1, biotin-labeled human RANKL-Fc protein …. Put plainly: competitive ELISA: antibody blocks biotin-labeled human RANKL-Fc binding to coated benchmark denosumab. On the procedure:
The next day, plates were washed with wash buffer, and blocked with 5% w/v non-fatty milk in PBST, 200 μl/well, for 2 hours at 37° C. […] After incubation at 37° C. for 40 minutes, plates were washed 4 times using wash buffer. Then the plates were added and incubated with 100 μl Peroxidase Streptavidin (1:5000 dilution in PBST buffer, Jackson Immunoresearch, Cat #016-030-084) for 40 minutes at 37° C. Plates were washed again using wash buffer. Finally, TMB was added and the reaction was stopped using 1M H₂SO₄. The absorbance of each well was read on a microplate reader using dual wavelengths mode with 450 nm for TMB and 630 nm as the reference wavelength, and the OD (450-630) values were plotted against antibody concentration. Data were analyzed using Graphpad Prism software and IC₅₀ values were reported.

Assay [6] has as its target T3, human RANKL-his protein (prepared in-house with SEQ ID NO: 43) (human, UniProt O14788 136-317).
T3 construct: also called recombinant human RANKL-his
T3 chain: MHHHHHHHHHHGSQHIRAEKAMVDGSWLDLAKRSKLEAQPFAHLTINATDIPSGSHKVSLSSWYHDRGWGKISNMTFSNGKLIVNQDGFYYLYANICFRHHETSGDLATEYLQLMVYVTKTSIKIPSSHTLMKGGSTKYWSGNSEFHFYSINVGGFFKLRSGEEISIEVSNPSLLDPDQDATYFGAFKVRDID
Description: Octet BLI, antibody captured, human RANKL-his in solution (same value as Table 2). On the procedure: (§4) Briefly, AHC/AMC biosensors (anti-human/anti-mouse IgG Fc capture, ForteBio) were presoaked with 10 mM glycine (pH 1.5) for 3 seconds, and then dipped in a well with running buffer (0.5% w/v BSA in PBST) for 3 seconds, the soaking and dipping steps were repeated for three times. […] A new baseline was run for 180 seconds in another well with HBS-EP⁺. […] Finally, sensors were presoaked with 10 mM glycine (pH 1.5) for 3 seconds, and then dipped in a well with running buffer for 3 seconds, the soaking and dipping steps repeated for three times. The association and dissociation curves were fit to a 1:1 Langmuir binding model using Octet evaluation software.
(In general: BLI is a label-free optical method that tracks binding on a fibre tip over time.)

Assay [7] deals with T3, human RANKL-his protein (prepared …). Description: Octet BLI, antibody captured on AHC/AMC sensor, human RANKL-his in solution, 1:1 fit. The procedure: as §4
Assay [8] has as its target T1, biotin-labeled human RANKL-Fc protein …. Description: capture ELISA: captured antibody, biotin-labeled human RANKL-Fc, OD(450-630). On the procedure:
as §3
Cell supernatants were harvested after six days in shaking flasks, spun down to pellet cells, and then chimeric antibodies were purified from cell supernatants as described above. The purified antibodies were tested in the capture ELISA, competitive ELISA assay and Octet affinity test following the protocols in the foregoing Examples.
The source holds these as a separate data set.

Assay [9] shares this target. Described as above. The procedure:
as §3
For the capture ELISA, 96-well micro plates were coated with 2 μg/ml goat anti-human IgG (AffiniPure Goat Anti-Human IgG, F(ab′)₂ fragment specific, Jackson Immunoresearch, Cat #109-005-097) instead of AffiniPure Goat Anti-Mouse IgG, Fcγ fragment specific, 100 μl/well.
This is another data set of the same source.

The target is the same in assay [10]. Description: competitive ELISA: antibody blocks biotin-labeled human RANKL-Fc binding to coated benchmark denosumab. The source holds these as a separate data set.
In assay [11] the target is T2, Recombinant human RANKL-his protein …. Description: cell-based or functional assay. The source holds these as a separate data set.
Assay [12] addresses T1, biotin-labeled human RANKL-Fc protein …. Description: competitive ELISA: antibody blocks biotin-labeled human RANKL-Fc binding to coated human RANK-Fc. The procedure:
as §1, §2
The source holds these as a separate data set.

For assay [13], the target named is T2, Recombinant human RANKL-his protein …. Put plainly: cell-based or functional assay. This is another data set of the same source.
Assay [14] shares this target. Put plainly: cell-based or functional assay. The source holds these as a separate data set.

Where two headings read alike, the source gives them in different places.

B1: mouse anti-RANKL monoclonal antibody B4H5 (antibody, V domains shown)
VH: DVQLQESGPDLVKPSQSLSLTCTVTGYSISSGYSWHWIRQFPGNKLEWMDYIHFSGSTNYNPSLKSRISITRDTSKNQFFLQFISVTTEDTATYYCARSGPSTYVMDYWGQGTSVTVSS
VL: DIVMTQSHRFMSTSVGDRVSITCKASQDVGAAVGWYQQKPGQSPKLLIYWASIRDTGVPDRFTGSGSGTDFTLTISNVQSEDLADYFCQHYNSYPLTFGGGTKLEIK
notes: Hybridoma-derived mouse IgG
Molecule B1 showed an IC50 in assay [1] of 2.1 nM. In assay [2], the “IC50, RANKL-induced osteoclast differentiation of RAW264.7 cells (pNPP, OD405)” value was found to be 1.31 nM. For the same molecule, a half-maximal response in assay [3] (EC50) required 0.583 nM.

B2: mouse anti-RANKL monoclonal antibody B1A8 (antibody, V domains shown)
VH: EVQLVESGGDLVKPGGSLKLSCAASGFTFSRYGMSWVRQTPDKRLEWVASISSGGTYTSYPDSVQGRFTITRDSAKNTLYLQMSSLKSEDTAMYYCARRNFITSATDCYFDVWGAGTTVTVSS
VL: DTVLTQSPATLSVTPGASVSLSCRASQSISNNLHWYQQKSHESPRLLIIYASQSISGIPSRFSGSGSGTDFTLSINSVETEDFGVYFCQQSNSWPFTFGGGTKLEIK
notes: Hybridoma-derived mouse IgG; also called Mouse B1A8
For B2, the “IC50, RANKL-induced osteoclast differentiation of RAW264.7 cells (pNPP, OD405)” value in assay [4] is 0.967 nM. In addition, the IC50 turned out to be 0.26 nM in assay [1] and 0.498 nM in assay [5]. Besides, the Kd in assay [6] and in assay [7] was 0.386 nM throughout. For the same molecule, the koff in assay [7] stood at 0.000236 s⁻¹. The kon in assay [7] was determined as 611000 M⁻¹ s⁻¹. For the same molecule, the EC50 in [3] was 0.397 nM; in assay [8], 0.493 nM.

B3: mouse anti-RANKL monoclonal antibody D1A1 (antibody, V domains shown)
VH: EVQLVESGGGLVKSGGSLKLSCAASGFTFRNYAMSWVRQTPEKRLEWVAGISSGGTYTYYPDTVKGRFTISRDNARNTLFLQMSSLRSEDTAMYYCARRDYGDVYEWYFDVWGTGTTVTVSS
VL: DIVMTQSHKFMSTSVGDRVSITCKASQDVRTSIAWYQQKPGQSPNLLIYSASYRYTGVPDRFTGSGSGTDFTFTISSVQAEDLAVYYCQQHYSSPWTFGGGTKLEIK
notes: Hybridoma-derived mouse IgG purified on Protein A; also called Mouse D1A1
B3: the EC50 was found to be 0.632 nM in assay [9], 0.0826 nM in assay [3] and 1.11 nM in [8]. The IC50 in assay [10] came to 1.28 nM; in assay [1], 0.0802 nM; in assay [5], 0.391 nM; in [12], 0.414 nM. The Kd in assay [6] and in [7] was 0.0718 nM each time. Further, the “IC50, RANKL-induced osteoclast differentiation of RAW264.7 cells (pNPP, OD405)” value in assay [11] is 0.839 nM; in assay [13], 3.41 nM. Besides, in assay [7], the koff turned out to be 7.9e-05 s⁻¹. The same molecule registered a kon in assay [7] of 1.1e+06 M⁻¹ s⁻¹.

B4: mouse anti-RANKL monoclonal antibody D1E3 (antibody, V domains shown)
VH: EVQLVESGGGLVKPGGSLKLSCAASGFTFSRYAMSWVRQTPEKRLEWVAGISSGGTYTYYPDTVKGRFTISRDSAKNILYLQMGSLRSEDSAMYHCARRDYGDVYEWYFDVWGTGTTVTVSS
VL: DIVMTQSHKFMSASVGDRVSITCKASQGVRIAVAWYQQKPGQSPKLLIYSASYRYTGVPDRFTGSGSGTDFTFTISSVQAEDLAVYYCQQHHSSPWTFGGGTKLEIK
notes: Hybridoma-derived mouse IgG; also called Mouse D1E3
Take B4: the values for the IC50 in assay [1] and in assay [5] were 0.0365 nM and 0.164 nM, respectively. Also, the “IC50, RANKL-induced osteoclast differentiation of RAW264.7 cells (pNPP, OD405)” value in [14] came to 0.998 nM. Besides, the EC50 was 0.0464 nM in [3] and 0.246 nM in [8].

As usually defined, the IC50 is the concentration that gives 50% inhibition. Low values mean greater potency, high ones weaker potency. In general, EC50 refers to the midpoint of the concentration-response curve. Usually Kd stands for the constant that tells how readily two partners part at equilibrium. Lower therefore signals tighter binding. The koff is the first-order rate constant of dissociation. Low readings indicate a long-lived complex, high ones a short-lived complex. What is called kon is the second-order rate constant of association. High values mean fast association, low ones slow association.
